Columns and labels:
[1] = molecular target: human collagen type I (CI) (human) (UniProt P02452); assay: SPR; as a6, with a 10-fold molar excess of (GPO)10
[2] = molecular target: human collagen type I (CI) (human) (UniProt P02452); assay: SPR; as a4, MMP mixed with a 10-fold molar excess of (GPO)10
[3] = molecular target: human collagen type I (CI) (human) (UniProt P02452); assay: SPR; CI immobilised on a sensor chip; pro- or actMMP-2 100 nM in MMP activity buffer (50 mM Tris-HCl pH 7.5, 200 mM NaCl, 5 mM CaCl2, 0.02% Brij-35) with 1 μM Ro 28-2653; 25°C; no competitor
[4] = molecular target: human collagen type I (CI) (human) (UniProt P02452); assay: SPR; CI immobilised on a dextran sensor chip by amine coupling; MMP 100 nM as analyte in PBS, 0.05% Tween 20 (no divalent metal ions); 25°C, 10 μl/min; 1:1 model with drifting baseline; without (GPO)10
[5] = molecular target: (GPO)10, H-Gly-Cys-Hyp-(Gly-Pro-Hyp)10-Gly-Cys-Hyp-Gly-NH2; assay: radioligand binding; collagens, chains, fragments and peptides (2 μg/well or 200 ng/well) immobilised on polystyrene microtiter wells; 2 ng [125I]-MMP per well, 4°C, 2 h; washed with PBS, 0.05% Tween 20; residual radioactivity in a gamma counter
[6] = molecular target: (GPP)10, H-Gly-Cys-Pro-(Gly-Pro-Pro)10-Gly-Cys-Pro-Gly-NH2; assay: as above
[7] = molecular target: GAP, H-Gly-Ala-Cys-(Gly-Ala-Pro)5-Gly-Phe-Hyp-Gly-Glu-Arg-(Gly-Ala-Pro)5-NH2; assay: as above
[8] = molecular target: cyanogen bromide peptide 3 of the α1 chain of collagen type I (α1CB3) (human); assay: as above
[9] = molecular target: cyanogen bromide peptide 6 of the α1 chain of collagen type I (α1CB6) (human); assay: as above
[10] = molecular target: cyanogen bromide peptide 7 of the α1 chain of collagen type I (α1CB7) (human); assay: as above
[11] = molecular target: cyanogen bromide peptide 8 of the α1 chain of collagen type I (α1CB8) (human); assay: as above
[12] = molecular target: human collagen type I (CI) (human) (UniProt P02452); assay: as above
[13] = molecular target: human collagen type III (CIII) (human) (UniProt P02461); assay: as above
[14] = molecular target: human collagen type VI (CVI) (human) (UniProt P12109); assay: as above
[15] = molecular target: α1 chain of collagen type I (α1(I)) (human) (UniProt P02452); assay: as above
[16] = molecular target: α2 chain of collagen type I (α2(I)) (human) (UniProt P08123); assay: as above
[17] = molecular target: human collagen type I (CI) (human) (UniProt P02452); assay: SPR; as a6, with a 10-fold molar excess of (POG)5
[18] = molecular target: human collagen type I (CI) (human) (UniProt P02452); assay: SPR; as a6, with a 10-fold molar excess of (GPP)10
[19] = molecular target: human collagen type I (CI) (human) (UniProt P02452); assay: SPR; CI immobilised on a sensor chip; 100-250 nM proMMP-2 mixed with up to 100-fold molar excesses of P33-42 in MMP activity buffer with 1 μM Ro 28-2653

Chain of actMMP-9 (86-kDa trypsin-activated form of matrix metalloproteinase-9) (P14780 107-707): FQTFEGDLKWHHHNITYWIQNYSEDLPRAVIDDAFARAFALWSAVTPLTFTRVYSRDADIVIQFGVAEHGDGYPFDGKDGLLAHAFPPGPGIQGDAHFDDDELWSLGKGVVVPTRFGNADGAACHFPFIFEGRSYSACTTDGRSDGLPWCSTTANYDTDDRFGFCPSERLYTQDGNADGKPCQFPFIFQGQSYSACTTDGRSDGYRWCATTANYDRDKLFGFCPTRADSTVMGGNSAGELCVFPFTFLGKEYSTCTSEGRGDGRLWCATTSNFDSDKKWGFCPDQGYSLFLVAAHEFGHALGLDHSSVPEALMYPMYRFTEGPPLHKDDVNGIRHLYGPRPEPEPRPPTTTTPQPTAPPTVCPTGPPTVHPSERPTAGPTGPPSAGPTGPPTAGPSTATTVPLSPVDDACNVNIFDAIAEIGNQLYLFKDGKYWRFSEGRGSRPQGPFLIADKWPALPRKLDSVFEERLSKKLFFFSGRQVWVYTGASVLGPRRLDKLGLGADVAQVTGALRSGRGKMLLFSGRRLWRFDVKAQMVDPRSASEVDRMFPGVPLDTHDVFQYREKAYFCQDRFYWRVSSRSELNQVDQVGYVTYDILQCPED
Chain of human collagen type III (CIII) (human) (P02461 24-1221): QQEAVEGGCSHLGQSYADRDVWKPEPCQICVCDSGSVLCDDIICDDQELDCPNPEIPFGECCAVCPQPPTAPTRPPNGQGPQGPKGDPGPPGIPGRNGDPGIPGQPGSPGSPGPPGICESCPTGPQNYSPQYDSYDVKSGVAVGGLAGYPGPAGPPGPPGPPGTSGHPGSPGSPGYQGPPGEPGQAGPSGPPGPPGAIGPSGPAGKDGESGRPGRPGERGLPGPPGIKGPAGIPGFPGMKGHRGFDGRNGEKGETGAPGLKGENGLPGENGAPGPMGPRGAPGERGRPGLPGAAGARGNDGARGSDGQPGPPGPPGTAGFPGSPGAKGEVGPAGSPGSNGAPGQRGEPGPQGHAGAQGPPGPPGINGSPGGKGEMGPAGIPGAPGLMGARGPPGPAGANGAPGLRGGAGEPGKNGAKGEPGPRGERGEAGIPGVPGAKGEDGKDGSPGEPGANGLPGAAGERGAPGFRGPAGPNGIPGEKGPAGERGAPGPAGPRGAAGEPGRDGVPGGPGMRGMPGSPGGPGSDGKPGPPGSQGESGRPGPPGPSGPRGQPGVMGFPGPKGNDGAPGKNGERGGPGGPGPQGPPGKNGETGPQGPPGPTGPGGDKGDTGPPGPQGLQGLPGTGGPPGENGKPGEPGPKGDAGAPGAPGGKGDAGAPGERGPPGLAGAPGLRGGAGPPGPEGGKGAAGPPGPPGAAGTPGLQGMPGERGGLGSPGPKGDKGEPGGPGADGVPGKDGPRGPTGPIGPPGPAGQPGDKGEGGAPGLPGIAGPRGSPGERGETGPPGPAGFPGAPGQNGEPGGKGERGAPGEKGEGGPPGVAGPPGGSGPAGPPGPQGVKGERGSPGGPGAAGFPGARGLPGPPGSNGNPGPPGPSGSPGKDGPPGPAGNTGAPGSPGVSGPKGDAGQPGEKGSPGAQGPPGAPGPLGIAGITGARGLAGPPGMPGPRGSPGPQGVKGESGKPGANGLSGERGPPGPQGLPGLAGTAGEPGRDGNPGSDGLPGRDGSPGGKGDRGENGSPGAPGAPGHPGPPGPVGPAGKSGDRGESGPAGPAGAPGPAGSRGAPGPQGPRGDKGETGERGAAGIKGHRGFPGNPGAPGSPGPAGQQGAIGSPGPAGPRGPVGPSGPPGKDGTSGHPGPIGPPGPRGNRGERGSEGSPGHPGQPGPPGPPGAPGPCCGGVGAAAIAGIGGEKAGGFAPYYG
Chain of human collagen type I (CI) (human) (P02452 23-1218, chain 1 of 2): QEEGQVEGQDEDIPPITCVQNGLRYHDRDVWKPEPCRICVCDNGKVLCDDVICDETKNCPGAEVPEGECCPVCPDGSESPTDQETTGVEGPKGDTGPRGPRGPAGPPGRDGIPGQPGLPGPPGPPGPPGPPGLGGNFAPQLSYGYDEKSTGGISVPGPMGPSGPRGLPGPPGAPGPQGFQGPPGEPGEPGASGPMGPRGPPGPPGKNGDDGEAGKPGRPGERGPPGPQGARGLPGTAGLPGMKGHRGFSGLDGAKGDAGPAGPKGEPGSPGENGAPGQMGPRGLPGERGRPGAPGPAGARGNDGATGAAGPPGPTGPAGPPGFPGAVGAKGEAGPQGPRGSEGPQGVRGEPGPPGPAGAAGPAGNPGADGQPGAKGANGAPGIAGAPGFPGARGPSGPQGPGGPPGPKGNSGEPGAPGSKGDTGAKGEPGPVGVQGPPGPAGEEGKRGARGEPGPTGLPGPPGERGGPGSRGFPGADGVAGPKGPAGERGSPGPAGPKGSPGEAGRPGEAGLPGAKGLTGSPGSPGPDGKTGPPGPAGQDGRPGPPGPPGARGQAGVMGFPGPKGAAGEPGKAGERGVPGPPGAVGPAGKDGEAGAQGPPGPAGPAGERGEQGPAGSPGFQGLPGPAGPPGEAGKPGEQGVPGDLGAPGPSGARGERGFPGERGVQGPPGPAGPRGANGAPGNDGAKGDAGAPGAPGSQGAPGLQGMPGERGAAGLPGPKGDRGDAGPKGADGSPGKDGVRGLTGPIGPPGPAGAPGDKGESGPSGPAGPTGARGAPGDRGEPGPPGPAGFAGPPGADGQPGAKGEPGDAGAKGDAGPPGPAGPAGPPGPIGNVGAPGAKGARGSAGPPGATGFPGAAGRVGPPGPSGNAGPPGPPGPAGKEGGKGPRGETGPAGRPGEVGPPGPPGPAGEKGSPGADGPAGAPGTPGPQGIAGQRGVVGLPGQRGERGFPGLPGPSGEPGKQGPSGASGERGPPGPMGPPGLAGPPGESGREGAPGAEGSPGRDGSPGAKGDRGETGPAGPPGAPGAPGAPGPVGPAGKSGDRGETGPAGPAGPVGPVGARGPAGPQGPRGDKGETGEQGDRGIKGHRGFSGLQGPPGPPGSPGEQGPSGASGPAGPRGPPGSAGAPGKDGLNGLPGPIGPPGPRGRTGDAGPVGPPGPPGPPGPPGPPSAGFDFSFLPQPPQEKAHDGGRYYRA
Chain of human collagen type I (CI) (human) (P08123 80-1119, chain 2 of 2, further chain): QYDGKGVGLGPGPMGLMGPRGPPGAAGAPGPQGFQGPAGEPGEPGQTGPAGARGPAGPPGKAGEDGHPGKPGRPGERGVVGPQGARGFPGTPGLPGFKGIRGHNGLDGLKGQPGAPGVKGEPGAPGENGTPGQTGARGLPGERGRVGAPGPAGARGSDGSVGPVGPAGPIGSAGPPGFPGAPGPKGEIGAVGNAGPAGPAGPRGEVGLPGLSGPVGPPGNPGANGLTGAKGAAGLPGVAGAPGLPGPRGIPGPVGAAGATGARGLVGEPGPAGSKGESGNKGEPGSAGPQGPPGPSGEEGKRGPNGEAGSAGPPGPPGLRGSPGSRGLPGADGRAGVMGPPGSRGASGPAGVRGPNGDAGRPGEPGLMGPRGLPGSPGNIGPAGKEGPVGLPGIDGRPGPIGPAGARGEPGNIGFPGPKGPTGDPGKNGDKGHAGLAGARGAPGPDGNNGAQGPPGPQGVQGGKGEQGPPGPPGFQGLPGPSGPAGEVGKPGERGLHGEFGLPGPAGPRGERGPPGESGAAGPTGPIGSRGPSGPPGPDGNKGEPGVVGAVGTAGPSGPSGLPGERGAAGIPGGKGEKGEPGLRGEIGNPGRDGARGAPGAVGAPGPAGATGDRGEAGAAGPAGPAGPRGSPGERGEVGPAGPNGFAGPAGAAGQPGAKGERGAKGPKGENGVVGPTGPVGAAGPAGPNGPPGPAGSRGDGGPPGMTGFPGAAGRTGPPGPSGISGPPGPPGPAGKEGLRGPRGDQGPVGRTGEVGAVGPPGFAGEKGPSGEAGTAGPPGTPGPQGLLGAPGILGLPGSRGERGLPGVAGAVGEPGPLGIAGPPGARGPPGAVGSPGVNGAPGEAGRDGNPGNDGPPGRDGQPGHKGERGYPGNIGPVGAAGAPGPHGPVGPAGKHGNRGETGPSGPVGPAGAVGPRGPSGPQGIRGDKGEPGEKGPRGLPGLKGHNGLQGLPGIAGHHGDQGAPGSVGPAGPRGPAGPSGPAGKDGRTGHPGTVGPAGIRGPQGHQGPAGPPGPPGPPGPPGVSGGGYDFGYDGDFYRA
Chain of α1 chain of collagen type I (α1(I)) (human) (P02452 162-1218): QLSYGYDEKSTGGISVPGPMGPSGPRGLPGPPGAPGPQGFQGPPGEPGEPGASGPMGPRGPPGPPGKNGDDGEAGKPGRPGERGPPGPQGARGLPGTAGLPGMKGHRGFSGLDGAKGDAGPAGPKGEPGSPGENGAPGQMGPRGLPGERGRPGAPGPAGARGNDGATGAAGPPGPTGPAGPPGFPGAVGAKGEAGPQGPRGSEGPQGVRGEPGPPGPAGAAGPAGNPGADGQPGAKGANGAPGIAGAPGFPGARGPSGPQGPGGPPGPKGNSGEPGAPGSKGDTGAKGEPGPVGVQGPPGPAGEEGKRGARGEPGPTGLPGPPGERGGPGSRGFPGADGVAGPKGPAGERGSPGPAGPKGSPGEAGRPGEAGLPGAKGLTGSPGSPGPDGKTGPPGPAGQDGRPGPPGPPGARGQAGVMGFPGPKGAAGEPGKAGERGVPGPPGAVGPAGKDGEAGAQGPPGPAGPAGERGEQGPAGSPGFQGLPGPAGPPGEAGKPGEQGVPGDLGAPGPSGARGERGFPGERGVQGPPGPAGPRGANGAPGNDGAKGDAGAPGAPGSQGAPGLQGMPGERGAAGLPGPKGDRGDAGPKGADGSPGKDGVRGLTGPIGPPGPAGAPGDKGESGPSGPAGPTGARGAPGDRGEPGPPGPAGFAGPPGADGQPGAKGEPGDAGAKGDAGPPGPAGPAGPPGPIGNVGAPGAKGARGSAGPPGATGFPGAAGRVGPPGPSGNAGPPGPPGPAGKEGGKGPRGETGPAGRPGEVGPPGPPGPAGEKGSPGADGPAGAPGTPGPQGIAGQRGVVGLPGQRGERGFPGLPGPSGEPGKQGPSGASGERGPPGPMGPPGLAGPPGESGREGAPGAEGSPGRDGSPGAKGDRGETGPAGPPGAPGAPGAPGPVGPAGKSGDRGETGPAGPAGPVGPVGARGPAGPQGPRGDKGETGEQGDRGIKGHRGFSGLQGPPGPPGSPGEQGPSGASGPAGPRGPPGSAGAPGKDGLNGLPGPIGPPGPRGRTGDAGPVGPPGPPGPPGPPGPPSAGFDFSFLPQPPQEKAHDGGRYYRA

Row | Kd with 10-fold molar excess of (GPO)10 [1] | Kd with 10-fold molar excess of (GPO)10 [2] | off rate with 10-fold molar excess of (GPO)10 [2] | Kd [3] | Kd [4] | koff [4] | bound [125I]-MMP (% of the radiolabeled MMP added) [8] | bound [125I]-MMP (% of the radiolabeled MMP added) [9] | bound [125I]-MMP (% of the radiolabeled MMP added) [10] | bound [125I]-MMP (% of the radiolabeled MMP added) [11] | bound [125I]-MMP (% of the radiolabeled MMP added) [12] | bound [125I]-MMP (% of the radiolabeled MMP added) [13] | Substance | other results
1 | 2710 nM | 210 nM | 0.56 s⁻¹ | 250 nM | 170 nM | 0.48 s⁻¹ | 7.4% | 4.9% | 6.8% | 4.4% | 11.1% | 14.3% | actMMP-2 (62-kDa APMA-activated form of matrix metalloproteinase-2) (enzyme) | bound [125I]-MMP (% of the radiolabeled MMP added) [5]: 6.2%; bound [125I]-MMP (% of the radiolabeled MMP added) [6]: 2.1%; bound [125I]-MMP (% of the radiolabeled MMP added) [7]: 1.5%; bound [125I]-MMP (% of the radiolabeled MMP added) [14]: 4.8%; bound [125I]-MMP (% of the radiolabeled MMP added) [15]: 19%; bound [125I]-MMP (% of the radiolabeled MMP added) [16]: 10.7%
2 |  | 1790 nM | 0.61 s⁻¹ |  | 870 nM | 0.76 s⁻¹ | 1.8% | 2.4% | 2.1% | 2.8% | 3.1% | 5% | actMMP-9 (86-kDa trypsin-activated form of matrix metalloproteinase-9) (from UniProt P14780 107-707) (enzyme) | 
3 | 156 nM | 100 nM | 0.37 s⁻¹ | 7.1 nM | 70 nM | 0.48 s⁻¹ | 13.2% | 12.8% | 18.2% | 14% | 24% | 40% | proMMP-2 (72-kDa latent proform of matrix metalloproteinase-2) (from UniProt P08253 30-660) (enzyme) | Kd with 10-fold molar excess of (POG)5 [17]: 156 nM; Kd with 10-fold molar excess of (GPP)10 [18]: 42.1 nM; increase of the Kd with high molar excesses of P33-42 [19]: < 50%
4 |  | 1220 nM | 0.22 s⁻¹ |  | 120 nM | 0.32 s⁻¹ | 7.4% | 19.3% | 20.4% | 31.6% | 30.9% | 45% | proMMP-9 (92-kDa latent proform of matrix metalloproteinase-9) (from UniProt P14780 20-707) (enzyme) | 

— PMC3024946, “Hydroxyproline-containing collagen analogs trigger the release and activation of collagen-sequestered proMMP-2 by competition with prodomain-derived peptide P33-42” (Fibrogenesis & Tissue Repair, 2011)
